tested on: Escherichia coli TOP10; experiment: shrunken log2 fold change of peptide-encoding DNA abundance (4.5 h post-induction vs induction); higher = less antimicrobial activity (less host growth inhibition); details: time post-induction: 4.5 h; library: site-saturation at positions 5, 18, 19, 20
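Further: peptides expressed intracellularly from a pBAD plasmid library in pooled LB shake-flask culture, induced with 0.3% L-arabinose, DNA abundance read by NGS, three biological replicates, DESeq2 with apeglm shrinkage.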

Row | Sequence | shrunken log2 fold change
1 | RRIRSRPPRLPRPRPRPVDAPRP | 0.0786
2 | RRIRIRPPRLPRPRPRPADSPRP | -0.325
3 | RRIRRRPPRLPRPRPRPEFHPRP | 0.0566
4 | RRIRMRPPRLPRPRPRPQSDPRP | -0.00296
5 | RRIRCRPPRLPRPRPRPHDSPRP | -0.298
6 | RRIRCRPPRLPRPRPRPYIVPRP | -0.168
7 | RRIRLRPPRLPRPRPRPKPVPRP | 0.165
8 | RRIRKRPPRLPRPRPRPKNPPRP | 0.0739
9 | RRIRFRPPRLPRPRPRPSNAPRP | -0.165
10 | RRIRERPPRLPRPRPRPAVRPRP | 0.00239
11 | RRIRQRPPRLPRPRPRPGPQPRP | 0.722
12 | RRIRSRPPRLPRPRPRPCEIPRP | -0.0377
13 | RRIRFRPPRLPRPRPRPWNSPRP | -0.976
14 | RRIRARPPRLPRPRPRPFCPPRP | 0.11
15 | RRIRMRPPRLPRPRPRPPMEPRP | 0.696
16 | RRIRFRPPRLPRPRPRPWYVPRP | -0.757
17 | RRIRHRPPRLPRPRPRPHKDPRP | -0.384
18 | RRIRHRPPRLPRPRPRPFSIPRP | -0.392
19 | RRIRWRPPRLPRPRPRPKKEPRP | -0.224
20 | RRIRLRPPRLPRPRPRPTHYPRP | -0.18
21 | RRIRSRPPRLPRPRPRPKAEPRP | 0.213
22 | RRIRGRPPRLPRPRPRPDKGPRP | 0.00725
23 | RRIRMRPPRLPRPRPRPLGEPRP | 0.317
24 | RRIRARPPRLPRPRPRPWWDPRP | -0.101
25 | RRIRFRPPRLPRPRPRPKFQPRP | -0.14

Row | Sequence | shrunken log2 fold change
26 | RRIRTRPPRLPRPRPRPAFEPRP | 0.219
27 | RRIRDRPPRLPRPRPRPEQDPRP | 1.39
28 | RRIRGRPPRLPRPRPRPMDNPRP | 0.12
29 | RRIRHRPPRLPRPRPRPAANPRP | -0.0763
30 | RRIRGRPPRLPRPRPRPILNPRP | -0.0611
31 | RRIRVRPPRLPRPRPRPHLWPRP | -0.0616
32 | RRIRVRPPRLPRPRPRPIEEPRP | -0.181
33 | RRIRQRPPRLPRPRPRPRLAPRP | 0.594
34 | RRIRIRPPRLPRPRPRPWLDPRP | -0.353
35 | RRIRKRPPRLPRPRPRPEWWPRP | 0.0708
36 | RRIRKRPPRLPRPRPRPCNFPRP | -0.132
37 | RRIRHRPPRLPRPRPRPELDPRP | 0.6
38 | RRIRERPPRLPRPRPRPLSQPRP | -0.406
39 | RRIRKRPPRLPRPRPRPYDKPRP | -0.124
40 | RRIRSRPPRLPRPRPRPAPQPRP | 0.461
41 | RRIRERPPRLPRPRPRPVSMPRP | -0.295
42 | RRIRYRPPRLPRPRPRPRKRPRP | 0.266
43 | RRIRRRPPRLPRPRPRPHRSPRP | -0.00354
44 | RRIRRRPPRLPRPRPRPGESPRP | 0.0142
45 | RRIRCRPPRLPRPRPRPMFNPRP | -0.848
46 | RRIRLRPPRLPRPRPRPNCDPRP | -0.00298
47 | RRIRDRPPRLPRPRPRPQRQPRP | 0.0345
48 | RRIRKRPPRLPRPRPRPSCRPRP | 0.0107
49 | RRIRSRPPRLPRPRPRPIHEPRP | -0.00691
50 | RRIRDRPPRLPRPRPRPLVVPRP | 0.102

Row | Sequence | shrunken log2 fold change
51 | RRIRRRPPRLPRPRPRPFDVPRP | -0.0126
52 | RRIRTRPPRLPRPRPRPRQTPRP | 0.0617
53 | RRIRDRPPRLPRPRPRPCSMPRP | -0.0575
54 | RRIRDRPPRLPRPRPRPACWPRP | 0.929
55 | RRIRNRPPRLPRPRPRPCMYPRP | -0.0592
56 | RRIRVRPPRLPRPRPRPCWRPRP | 0.0437
57 | RRIRDRPPRLPRPRPRPCYRPRP | -0.417
58 | RRIRGRPPRLPRPRPRPCHTPRP | -0.0963
59 | RRIRMRPPRLPRPRPRPTLSPRP | 0.377
60 | RRIRLRPPRLPRPRPRPGNGPRP | 0.0164
61 | RRIRVRPPRLPRPRPRPQVFPRP | -0.0729
62 | RRIRSRPPRLPRPRPRPYPPPRP | -0.377
63 | RRIRWRPPRLPRPRPRPVHSPRP | -0.37
64 | RRIRSRPPRLPRPRPRPNTIPRP | -0.511
65 | RRIRQRPPRLPRPRPRPVLHPRP | -0.149
66 | RRIRIRPPRLPRPRPRPDVKPRP | -0.147
67 | RRIRGRPPRLPRPRPRPMCHPRP | 0.874
68 | RRIRIRPPRLPRPRPRPPFGPRP | 0.255
69 | RRIRLRPPRLPRPRPRPYTYPRP | -0.235
70 | RRIRNRPPRLPRPRPRPCCTPRP | 2.47
71 | RRIRIRPPRLPRPRPRPQFGPRP | 1.74
72 | RRIRPRPPRLPRPRPRPNIQPRP | -0.404
73 | RRIRERPPRLPRPRPRPTAEPRP | 0.265
74 | RRIRKRPPRLPRPRPRPWNIPRP | -0.275
75 | RRIRFRPPRLPRPRPRPWFDPRP | -0.101

Row | Sequence | shrunken log2 fold change
76 | RRIRTRPPRLPRPRPRPAHMPRP | -0.0928
77 | RRIRERPPRLPRPRPRPKMQPRP | -0.0537
78 | RRIRHRPPRLPRPRPRPHSAPRP | 0.0327
79 | RRIRKRPPRLPRPRPRPLHWPRP | 0.59
80 | RRIRIRPPRLPRPRPRPLPKPRP | 0.263
81 | RRIRERPPRLPRPRPRPDSPPRP | -0.184
82 | RRIRNRPPRLPRPRPRPERIPRP | -0.00936
83 | RRIRPRPPRLPRPRPRPAGNPRP | 0.194
84 | RRIRGRPPRLPRPRPRPNMIPRP | 0.0819
85 | RRIRQRPPRLPRPRPRPPDDPRP | -0.308
86 | RRIRNRPPRLPRPRPRPIIAPRP | -0.127
87 | RRIRERPPRLPRPRPRPQWAPRP | -0.0475
88 | RRIRIRPPRLPRPRPRPSYSPRP | -0.694
89 | RRIRDRPPRLPRPRPRPWAEPRP | 0.302
90 | RRIRLRPPRLPRPRPRPHPPPRP | 1
91 | RRIRFRPPRLPRPRPRPNEVPRP | -0.0205
92 | RRIRPRPPRLPRPRPRPNKGPRP | -0.266
93 | RRIRWRPPRLPRPRPRPSGPPRP | 0.114
94 | RRIRWRPPRLPRPRPRPMQNPRP | 0.459
95 | RRIRPRPPRLPRPRPRPNWAPRP | 0.176
96 | RRIRLRPPRLPRPRPRPMWDPRP | 0.0295
97 | RRIRLRPPRLPRPRPRPRQNPRP | 0.108
98 | RRIRARPPRLPRPRPRPIFKPRP | -0.0373
99 | RRIRSRPPRLPRPRPRPPNKPRP | -0.0165
100 | RRIRARPPRLPRPRPRPLGHPRP | 0.134

Row | Sequence | shrunken log2 fold change
101 | RRIRRRPPRLPRPRPRPIFMPRP | 0.294
102 | RRIRKRPPRLPRPRPRPSNMPRP | -0.327
103 | RRIRGRPPRLPRPRPRPFRMPRP | 0.00538
104 | RRIRCRPPRLPRPRPRPSPEPRP | 0.3
105 | RRIRWRPPRLPRPRPRPQTVPRP | -0.0322
106 | RRIRNRPPRLPRPRPRPGEQPRP | 0.137
107 | RRIRWRPPRLPRPRPRPQMKPRP | -0.316
108 | RRIRLRPPRLPRPRPRPDGTPRP | 0.245
109 | RRIRCRPPRLPRPRPRPYQGPRP | 0.0299
110 | RRIRNRPPRLPRPRPRPGDTPRP | -0.0217
111 | RRIRRRPPRLPRPRPRPTQNPRP | 1.03
112 | RRIRFRPPRLPRPRPRPEEFPRP | -0.0316
113 | RRIRCRPPRLPRPRPRPYEYPRP | -0.769
114 | RRIRGRPPRLPRPRPRPGYMPRP | -0.0736
115 | RRIRWRPPRLPRPRPRPYELPRP | -0.0904
116 | RRIRQRPPRLPRPRPRPGGNPRP | -0.0842
117 | RRIRFRPPRLPRPRPRPWAYPRP | -0.201
118 | RRIRPRPPRLPRPRPRPTATPRP | 0.425
119 | RRIRWRPPRLPRPRPRPPVIPRP | -0.189
120 | RRIRKRPPRLPRPRPRPLPRPRP | 1.08
121 | RRIRMRPPRLPRPRPRPGHKPRP | -0.231
122 | RRIRWRPPRLPRPRPRPQFPPRP | 0.0157
123 | RRIRHRPPRLPRPRPRPQEPPRP | -0.136
124 | RRIRARPPRLPRPRPRPFPKPRP | 0.178
125 | RRIRNRPPRLPRPRPRPMVEPRP | -0.481

Row | Sequence | shrunken log2 fold change
126 | RRIRQRPPRLPRPRPRPNMDPRP | -0.225
127 | RRIRPRPPRLPRPRPRPWITPRP | -0.469
128 | RRIRARPPRLPRPRPRPWSAPRP | 0.132
129 | RRIRWRPPRLPRPRPRPMALPRP | -0.0125
130 | RRIRFRPPRLPRPRPRPLLCPRP | -0.105
131 | RRIRIRPPRLPRPRPRPRFLPRP | -0.216
132 | RRIRERPPRLPRPRPRPQAHPRP | -0.0188
133 | RRIRARPPRLPRPRPRPAKTPRP | 0.179
134 | RRIRLRPPRLPRPRPRPLRCPRP | -0.0152
135 | RRIRGRPPRLPRPRPRPNAMPRP | 0.988
136 | RRIRRRPPRLPRPRPRPSDKPRP | -0.492
137 | RRIRPRPPRLPRPRPRPSVFPRP | -0.0552
138 | RRIRDRPPRLPRPRPRPCIWPRP | 0.033
139 | RRIRERPPRLPRPRPRPQFLPRP | -0.571
140 | RRIRFRPPRLPRPRPRPPAHPRP | 0.613
141 | RRIRHRPPRLPRPRPRPECDPRP | -0.0404
142 | RRIRSRPPRLPRPRPRPYLTPRP | -0.429
143 | RRIRWRPPRLPRPRPRPVHRPRP | 0.181
144 | RRIRRRPPRLPRPRPRPLWYPRP | -0.166
145 | RRIRYRPPRLPRPRPRPDIQPRP | -0.349
146 | RRIRDRPPRLPRPRPRPCPLPRP | -0.0882
147 | RRIRNRPPRLPRPRPRPDMHPRP | -0.0698
148 | RRIRRRPPRLPRPRPRPCFRPRP | -0.00559
149 | RRIRMRPPRLPRPRPRPHVLPRP | -0.00145
150 | RRIRVRPPRLPRPRPRPVYNPRP | -0.738
